These results are taken from a protein production outcome set (Wang et al. 2014).

The data set can be described thus: label from the status in PepcDB records.

On to “MYNREGIQGHILSFIDFSKASTFLDIGCGKGNDLIEISNRTCKEAKLYGVDVKANLIEFAKMQTEGDCRFTFNVYDVEDGLKFEDESIDVIISCNVLECIKNKSKLLHEIHRVLKPDGKIIMAHFDWDTQIFNAFDKNLYRKLIHTYSDWQQPWMNDCDAWMGRRISGVFNETGLFSGNIFTYVVTESEYKEGFRGYSLINEEFKALVEKGIIKNTEFELFKDQIIQLEKTGHYFYSVNLYTYVGQKK”, for which the protein production entry is “failed”. As for “MYRDIATKLVAAIQDGIFTVKLPTEAQLMERYQASRNTIRKAIDLVYQQGLLRRVQGSGYYITNIQLQHKTVVNLSARSLFNSHVHPRTLTSKILTFDTIHGDSALSRKLNIPVDEELYRIIRLRYWHDQLYCLEKAYYLRSVVPYLSTEAVNTSIWDFINEAYGIGIANSDDYLSLTNLNKEEAELMNLAQGATHLALDSCNYYKNNGLLDFSHTIFVYPDLALYFHTTNLANN”, the entry is “failed”; as for “MYREFYGLTEKPFSKTPDPRYLFLSRGHREALARLQYAVEERELALLTGDIGCGKTTISRALMDAVGNDGCFCFIVNPRLSAVEFLRTVARSLGIAEPAAAKDELLRQLTEAVYRLEGEKRCPVIIIDEAQLIPDQEVFDEIRLLTNFQLDDRNLMSVILMGQPELRQILSEPAHEALRQRIAMHYHLQPLSLEETLEYVDFRVEVAGGPQGLFSPDAIRRIYELSGGVPRKINILATNALLVGFGKDSAWIDASLVEELRDEASLYLEHHHHHH”, “failed”. Take “MYSALLNADIRIYGYLRASTDEQDASRAKNELMLFAEQMGFQVACWFEENESGAQLKRPELFRLLDIAISGDVILVEQVDRISRLNTQDWEKLKLMINKKGLKVVSLDLPTSYQFMSNTDDFTERMLSALNGMMLDMLAAVARKDYEDRRRRQAQGVQRAKLEGKYKGRPINTKLHNKIEGLLRENKSYSQIENLLGCSRHTISKVSKLIKSSIG”: the protein production result is “failed”. As for “MYSKIEGSIITARFDKETDFFTDLVDLCNKYEVKSGTVLWAIGMLKEFQIGYWNGNDYEKETFRERLELVSLHGSIAENDPRFHIHAAGARGNHGIVGGHLFSAKVDPLVEIQIMKITGFSMSRELDNSDGLYKLVIKLEHHHHHH”, the entry is “failed”.

Turning to “MYSNSKCNKFLMYFIFIIFLFCSCQTFYPKNSPEFSFIENSGKNFVWEKLTEGIFLSHIKYEDYPLIIHAVKIDLTNPKLKIVVTEPALFNSKGMVKRETTLSFARRHNTVIALNAAFFNVISFSFSLRGEPLGIHIDKKINLSKPFPKYGALCFLDDNSAFIIESQNTEDIKADIEYAVSGNRIILKNGKPIITNISKKENSRTCVGLADGGKTLYLFFAEGENKKKSRGITYDQAHFFMKKLGAQDAIHLDGGGSSSLIIKKENSFFVQVPSISHFGLRKVVTNLGFIIED”, the protein production result is “failed”. Consider “MYSPFEILYLAIIIDSLSYTIGALLYGSPIPVRGFKEMGHKMIVNSIYVAVLANIFGLILSILSQLQNIVGANWSTFYLDIGLLQIQTGVAINMGKFLYGIIALILYYFKVPSQFYSLVTPLLQYISFLTDILILLNFYMDLGIFIQSSYMVLIAIGILLMALPFQMGKGIGAMLISFTIVFYVGLPLLPILISNSSPLQNQNFVLQDISLQTEEFYAQIPALFYSFILIPLTYVGVLVGFSVVLQSFIGGYVGRLPIPVEI”, for which the protein production entry is “failed”. Consider “MYSYADRIRAVALYIKLGLRVRATIRQLGYPTKNALKGWYQHYLKHQDLPASQAPRAPKYSLQQRQVAIAHYLAHDRCIAATMRALGYPGRGTLTAWVRQDCPDTCKSRVGRSWPATKPDALMCEGVVQLCARRSSAQQIADKLGVCRGTLYNWKNQLLGPCAPASMKHSPKRSPVLDEAALRRQVESLRQDVRRLKIERELLKQAHEILKNGADIDLHRLANKDKAVLVEALHGQYELPELLSLVGLARSSYFYHRARLKLADKYVDLRRSITEIFDNNYRCYGYRRVQASLLKECTGISEKVVRRLMKQEGLIVAKPKRRRYNSYLGEIGAAPQNLINRDFRAAAPNEKWLTDITELQIPAGKVYLSPVIDCFDGLVVSWSIGTHPNAHLVNTMLDAAIDAVQGSESRPVIHSDRGAHYRWPGWLSRVHDAKLTRSMSRKGCSPDNAACEGFFGRLKMELFYPNNWQSTTIEQFIEAVDAYIRWYNEKRIKVSLGRLSPVEYRHKLGLAA”, for which the protein production entry was “failed”.
